Measurements from patent US20190316133, “Anti-Fibrinogen Aptamers and Uses Thereof” (Laboratoire Francais du Fractionnement et des …, published 2019).

Experiments:
[1] = molecular target: T1, fibrinogen (transgenic human, from milk of transgenic cows) (Homo sapiens, UniProt P02671-2;P02675;P02679 P02671-2:20-644,P02675:31-491,P02679:27-453); experiment: SPR; high affinity; pH-dependent; conditions: tags: none; 97% purity; chain copies: 2
Experimental: (§1) The selected aptamer was synthetized with Biotin and a triethylene glycol spacer at the 5′ end of the oligonucleotide. A 1 μM solution of the aptamer was prepared using the SELEX selection buffer. The aptamer solution was heated to 90° C. for 5 min, incubated on ice for 5 min and equilibrated to room temperature for 10 min. The preparation was injected on a streptavidin coated sensor chip SA of Biacore T200 instrument (GE Healthcare) at a flow rate of 10 μl/min for 7 min. Then, different concentrations of the target were injected to the immobilised aptamer at 30 μl/min for 1 minute. After dissociation for 1-2 min a wash step was performed by injecting a suitable wash buffer at 30 μl/min for 1 min. For elution, a suitable elution buffer was injected at 30 μl/min for 1-2 min. Finally the sensor chip was regenerated by injection of 50 mM NaOH at 30 μl/min for 30 sec. During the course of the experiment the response signal was recorded in a sensorgram.
The core sequences of aptamers SEQ ID NO:1 and SEQ ID NO:58 (namely the minimal sequence binding to fibrinogen) were determined. The aptamer of SEQ ID NO:66 corresponds to the core sequence of aptamer of SEQ ID NO:1. The aptamer of SEQ ID NO:67 is the core sequence of aptamer of SEQ ID NO:58. FIGS. 3A-3D show the binding profile obtained for the core sequences of aptamers of SEQ ID NO:1 and NO:58 by SPR. […]

[2] = molecular target: T1, fibrinogen (transgenic human, from milk …); experiment: SPR; dose-dependent 125-1000 nM at pH 6.3; not eluted by 1 M NaCl; released at pH 7.4 with 2 M MgCl2; conditions: tags: none; 97% purity; chain copies: 2; label: 5' biotin-triethylene glycol
Experimental: (§2) Each solution of transgenic fibrinogen was injected at pH 6.3 whereby a complex was formed in a dose-dependent manner as evidenced by the increase of the signals depending on the concentration of fibrinogen. […] Fibrinogen was then released from the complex by an elution buffer at pH 7.40 and containing MgCl₂ at 2M. The solid support was then regenerated by injecting a solution of NaOH at 50 mM. X-axis: time in s. Y-axis: SPR response in arbitrary scale.
as §1, with “Finally the sensor chip was regenerated by injection of 50 mM NaOH at 30 μl/min for 30 sec.” left out

[3] = molecular target: T1, fibrinogen (transgenic human, from milk …); experiment: SPR; high affinity stated; conditions: tags: none; 97% purity; chain copies: 2; label: 5' biotin-triethylene glycol
Experimental: as §1

[4] = molecular target: T1, fibrinogen (transgenic human, from milk …); experiment: SPR; dose-dependent 125-1000 nM at pH 6.3; not eluted by 0.5 M NaCl; released at pH 7.4; conditions: tags: none; 97% purity; chain copies: 2; label: 5' biotin-triethylene glycol
Experimental: as §2, with “7.40.” for “7.40 and containing MgCl₂ at 2M.”, “scale” for “scale.”
as §1

T1 sequence (P02671 other isoform, or with tags, fused parts or gaps, chain 1 of 3): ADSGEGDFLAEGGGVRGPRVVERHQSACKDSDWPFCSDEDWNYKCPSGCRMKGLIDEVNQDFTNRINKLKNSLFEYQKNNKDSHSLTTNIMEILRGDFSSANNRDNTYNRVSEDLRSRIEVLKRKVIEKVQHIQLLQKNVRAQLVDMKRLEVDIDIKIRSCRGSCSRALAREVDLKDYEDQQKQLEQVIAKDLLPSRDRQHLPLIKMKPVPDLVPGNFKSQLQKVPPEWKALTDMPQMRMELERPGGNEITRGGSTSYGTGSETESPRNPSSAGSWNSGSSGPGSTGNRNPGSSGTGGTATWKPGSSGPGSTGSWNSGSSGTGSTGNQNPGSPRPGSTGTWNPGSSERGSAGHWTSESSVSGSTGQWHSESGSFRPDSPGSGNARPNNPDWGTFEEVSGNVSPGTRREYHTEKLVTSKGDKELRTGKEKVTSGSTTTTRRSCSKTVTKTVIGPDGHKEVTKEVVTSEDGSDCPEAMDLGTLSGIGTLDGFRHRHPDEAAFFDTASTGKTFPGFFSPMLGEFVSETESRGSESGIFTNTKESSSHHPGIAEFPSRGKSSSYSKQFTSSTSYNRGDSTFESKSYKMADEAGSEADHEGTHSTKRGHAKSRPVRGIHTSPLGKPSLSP
T1 sequence (P02675 31-491, chain 2 of 3): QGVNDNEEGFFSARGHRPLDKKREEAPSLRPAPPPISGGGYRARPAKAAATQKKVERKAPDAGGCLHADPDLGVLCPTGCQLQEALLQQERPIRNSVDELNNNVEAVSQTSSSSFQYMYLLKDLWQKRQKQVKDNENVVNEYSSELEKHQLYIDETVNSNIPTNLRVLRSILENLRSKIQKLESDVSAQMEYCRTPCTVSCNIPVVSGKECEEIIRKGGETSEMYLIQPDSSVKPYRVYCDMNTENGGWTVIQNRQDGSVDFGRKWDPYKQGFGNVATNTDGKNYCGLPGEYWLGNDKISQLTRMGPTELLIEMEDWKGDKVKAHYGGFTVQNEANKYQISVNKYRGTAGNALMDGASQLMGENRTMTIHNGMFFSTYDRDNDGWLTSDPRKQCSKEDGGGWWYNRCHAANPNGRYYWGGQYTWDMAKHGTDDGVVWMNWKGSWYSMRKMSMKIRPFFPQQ
T1 sequence (P02679 27-453, chain 3 of 3): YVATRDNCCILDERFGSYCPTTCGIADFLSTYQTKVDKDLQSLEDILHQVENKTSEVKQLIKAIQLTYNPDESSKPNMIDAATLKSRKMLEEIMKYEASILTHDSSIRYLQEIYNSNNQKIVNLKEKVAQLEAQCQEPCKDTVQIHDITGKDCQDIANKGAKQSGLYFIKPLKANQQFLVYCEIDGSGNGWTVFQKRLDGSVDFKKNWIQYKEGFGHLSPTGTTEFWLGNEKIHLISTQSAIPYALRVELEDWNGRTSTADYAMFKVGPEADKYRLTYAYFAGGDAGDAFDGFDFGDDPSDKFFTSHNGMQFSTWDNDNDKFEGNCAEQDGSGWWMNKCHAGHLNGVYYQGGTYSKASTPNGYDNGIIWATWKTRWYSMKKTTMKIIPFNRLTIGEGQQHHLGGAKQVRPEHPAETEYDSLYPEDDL

Binder | binding result [1] | binding result [3] | further results
SEQ ID NO:1 aptamer (ssDNA) DNA: GGGTCAATGCCAGGTCTCGGACCTGGAATCCGCCACCCGCATTAGAACCAGGGTTGACATCGGCTCGCAAGCAGTC | binds |  | 
CGCGTGTGGTTGGTAGGGCTAGGTGTATACGCAT (ssDNA) [A5-2.9 (core of SEQ ID NO:58)] |  |  | binding result [2]: binds
SEQ ID NO:58 aptamer (ssDNA) DNA: GGGTCAATGCCAGGTCTCAACTTTCGCGTGTGGTTGGTAGGGCTAGGTGTATACGCATATCGGCTCGCAAGCAGTC | binds |  | 
SEQ ID NO:65 aptamer (ssDNA) DNA: GGGTCAATGCCAGGTCTCGAGCCGGTGTTGTGTTATGTTGGTAGGGAAGGTGTATAATATCGGCTCGCAAGCAGTC |  | binds | 
A5-1.9 (core of SEQ ID NO:1) (ssDNA) DNA: GGGTCAATGCCAGGTCTCGGACCTGGAATCCGCCACCCGCATTAGAACCAGGGTTGAC |  |  | binding result [4]: binds
SEQ ID NO:60 aptamer (ssDNA) DNA: GGGTCAATGCCAGGTCTCTGCGTACTTATCTCGATGTGGTTGGTAGGGATAGGTGTATATCGGCTCGCAAGCAGTC |  | binds | 
